From patent US9114104B2, “Proteinase K inhibitors, methods and compositions therefor” (Life Technologies Corporation, priority 2008, dated 2015)
“And” between values parts separate entries of the source, which are not always exact repeats. Equal entries are not always repeated.

Experiments:
Type in all cases: biochemical
proteinase K [1] = target: T1, proteinase K (Parengyodontium album, UniProt P06873); experiment: Indirect linked assay: proteinase K inhibition read out by reverse transcriptase real time PCR of Xeno RNA template (Cells-to-CT kit); conditions: for lowest concentration in the stopped mixture with inhibitory activity for proteinase K: Example 2, FIG. 1, tested 1 mM to 0.05 mM in stopped mixture; for proteinase K inhibitory activity: all concentrations tested; for Ct (cycle threshold): all concentrations tested (1 mM to 0.05 mM), no Xeno RNA detected
Text: The present example provides for inhibition of proteinase K in the context of preparing samples for nucleic acid detection. Said preparation of samples is described by pending U.S. patent application Ser. No. 12/122,274 filed May 16, 2008 entitled “Sample Preparation for In Situ Nucleic Acid Analysis, Methods and Compositions Therefor,” hereby incorporated by reference in its entirety. Embodiments of said patent application provide a process for preparing a sample containing RNA for in situ analysis of RNA or a surrogate thereof. In some embodiments, the process comprises contacting the sample containing RNA with a lysis mixture comprising a polypeptide having protease activity under conditions and for a time to produce a lysate, and admixing at least a portion of the lysate with a stop mixture that comprises an inhibitor of the polypeptide having protease activity at substantially the same temperature as the contacting step to form a stopped mixture. The resultant stopped mixture is preferably compatible with in situ reverse transcriptase and DNA polymerase reactions.
Methoxysuccinyl tetrapeptide chloromethylketone compounds synthesized as set forth in Example 1 herein were analyzed for inhibitory activity of proteinase K in such stopped mixtures as described below. Functional validation for the nucleic acid detection system using inhibitors of embodiments herein was carried out by measuring mRNA levels in biological samples using the TaqMan® Gene Expression Cells-to-CT™ Kit and the TaqMan® Cells-to-CT™ Control Kit (Applied Biosystems, Foster City, Calif.). MicroAmp® optical 96-well reaction plates were purchased from Applied Biosystems. Disposable reagent reservoirs were purchased from VistaLab Technologies, Inc (Mt. Kisco, N.Y.). Reverse transcription (RT) reactions were performed at 37° C. for 60 min, 95° C. for 5 min, and cooled to 4° C. by using GeneAmp® PCR systems 9700 (Applied Biosystems). Real time PCR was performed by using 7500 Fast Real-Time PCR System. (Applied Biosystems).
The present indirect linked assay measures the amount of inhibition of proteinase K activity by assaying reverse transcriptase real time PCR amplification of a template, which amplification is dependent upon reverse transcriptase activity.
Stop solutions (100 μl) contained the following reagents (10× concentration):
Test inhibitor, 11 mM (final concentration when diluted into stopped mixture is 1 mM). Test inhibitor was also used at concentrations such that, when diluted with a lysis mixture to form a stopped mixture as described below, the final concentration of inhibitor in the stopped mixture was 0.75 mM, 0.5 mM, 0.25 mM, 0.10 mM, 0.05 mM and 0 mM (control).
Proteinase K lysis solution (50 μL (no added DNase)) from the TaqMan® gene expression Cells-to-CT™ kit (Applied Biosystems) was aliquoted into 18 tubes. To the test samples (these are a working equivalent to lysis mixtures in the Cells-to-CT™ workflow), stop solution (5 μL) was added; the tubes were mixed and held for 2 min at room temperature. For the control reactions, 50 μl of proteinase K buffer was mixed with 5 μl of stop mix without inhibitor and the resulting reaction mixture was heated at 95° C. for 10 min to thermally inactivate the proteinase K reaction. Next, reverse transcription reagents were prepared, i.e. 15 μL 2×RT buffer, and 1.5 μL of 20×RT enzyme mix, were aliquoted and mixed in the wells of a 96 well plate. To this RT solution, 13.5 μL of each proteinase K containing stopped mixture was added and the solution was mixed well. The resulting mixtures were incubated at room temperature for 1 hr for residual proteinase K activity to degrade the RT enzyme. After 1 hr incubation at room temperature, 1 μL of Xeno™ RNA Control template (Applied Biosystems P/N 4386995 diluted to 25,000 copies/μL in 10 ng/μL poly A) was added to all wells except for the no template control wells. […]

proteinase K [2] = target: T1, proteinase K; experiment: Detection of β-actin RNA in HeLa cell lysates after stop solution (in vitro validation); conditions: FIG. 6; ~10,000 HeLa cells lysed, β-actin RT-PCR
Description: HeLa cells (˜10,000 cells) were lysed in 50 μl lysis solution for 5 minutes at room temperature. Stop solution (5 μl) was then added; the lysate-stop solution was mixed, and incubated for 2 minutes at room temperature. A volume of 10 μl of stopped lysate was added to a 50 μl RT reaction followed by addition of 4 μl of RT reaction into a 20 μl PCR reaction using the β-actin primers/probe of the TaqMan® Gene Expression Cells-to-CT™ Kit (Applied Biosystems).

proteinase K [3] = target: T1, proteinase K; experiment: Direct assay: residual proteinase K activity on BSA substrate, precast SDS protein gel
Description: For the precast SDS denaturing protein gel analysis data of FIG. 3, proteinase K (50 μl of 100 μg/ml) lysis mixture without DNase (as for Example 2) was mixed with 5 μl of stop solution with varying amounts of MeOSuc-AAPF-CH2Cl (SEQ ID NO:5) and incubated for 10 min at room temperature. Ultrapure BSA (10 μl of 5 mg/ml, Applied Biosystems) was added to each sample and the samples were held for 10 min at room temperature. The reaction mixture was heated for 30 min at 95° C. and analyzed using precast protein gels (BIO-RAD, Hercules, Calif.). From the 65 μl of total reaction mixture, 10 μl reaction mixture was mixed with 5 μl of gel loading dye and further heated at 95° C. for 5 min. Then, the reactions were kept on ice for 2 min and loaded on the gel. Control reactions, with and without BSA, were also carried out. […]
The precast protein gel was run at 120 V for 1 h using 1× Tris/glycine/SDS buffer (BIO-RAD, Hercules, Calif.). […] The gel was analyzed using AlphaEase™ FC software (Alpha Innotech, San Leandro, Calif.). […]
Proteinase K (50 μl of 100 μg/ml) lysis mixture without DNase (as for Example 2) was mixed with 5 μl of stop solution with varying amounts of MeOSuc-AAAPL-CH2Cl (SEQ ID NO:7) and incubated for 10 min at room temperature. […] The reaction mixture was heated for 30 min at 95° C. and analyzed using precast protein gels (BIO-RAD, Hercules, Calif.). […]

proteinase K [4] = target: T1, proteinase K; experiment: Direct assay: residual proteinase K activity on BSA substrate, Protein 80 Bioanalyzer chip; conditions: FIG. 2
Description: A direct assay for inhibition of proteinase K activity by MeOSuc-AAPF-CH2Cl (SEQ ID NO:5) was carried out using bovine serum albumin (BSA) as substrate and analyzing products using each Bioanalyzer chips and precast protein gels. Such direct assays were carried out to separate inhibition of proteinase K by a test inhibitor from any effects the stopped mixture may have on an RT-PCR reaction.
The reaction mixtures included the proteinase K solution (50 μL, 100 μg/ml) mixed with 5 μL of stop solution having varying amounts of tetrapeptide, MeOSuc-AAPF-CH2Cl (SEQ ID NO:5), as for Example 2. Incubation was for 10 min at room temperature. To assay for proteinase K activity, ultrapure BSA (12 μL of 50 mg/ml) was added to each sample and the samples were held for 10 min at room temperature. Resultant mixtures were heated for 30 min at 95° C. and analyzed using a Protein 80 Bioanalyzer chip (2100 Bioanalyzer, Agilent, Santa Clara, Calif.). The Bioanalyzer protein gel data is provided in FIG. 2, in which intact Ultrapure BSA (Applied Biosystems) is at about 70 kDa, and proteinase K is at about 35 kDa. The lanes of FIG. 2 are labeled as follows from left to right: Ladder; BSA only; No BSA (proteinase K only); MeOSuc-AAPF-CH2Cl (SEQ ID NO:5) in the stopped mixture at 1 mM, 0.75 mM, 0.5 mM, 0.25 mM, 0.125 mM, and 0 mM.

T1 sequence (P06873 106-384): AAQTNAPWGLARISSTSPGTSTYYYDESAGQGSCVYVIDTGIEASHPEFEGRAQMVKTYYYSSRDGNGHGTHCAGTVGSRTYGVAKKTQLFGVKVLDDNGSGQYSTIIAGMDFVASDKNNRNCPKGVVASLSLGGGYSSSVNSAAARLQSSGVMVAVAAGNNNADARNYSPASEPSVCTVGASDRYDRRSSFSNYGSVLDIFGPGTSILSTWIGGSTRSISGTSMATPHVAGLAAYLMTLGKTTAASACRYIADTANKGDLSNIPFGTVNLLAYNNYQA

Substance: MeOSuc-AlaAlaAlaProPhe-CH2Cl (AAAPF; HELM PEPTIDE1{[COC(=O)CCC(=O)[*:2]].A.A.A.P.F.[ClC[*:1]]}$$$$V2.0; SMILES COC(=O)CCC(=O)N[C@@H](C)C(=O)N[C@@H](C)C(=O)N[C@@H](C)C(=O)N1CCC[C@H]1C(=O)N[C@@H](Cc1ccccc1)C(=O)CCl) [MeOSuc-AAAPF-CH2Cl]
- concentration required to achieve the same level of inhibition as MeOSuc-AAPF-CH2Cl at 0.05 mM (proteinase K [1]; FIG. 5 compared to FIG. 1): 0.1 mM
- concentration providing effective inhibition of proteinase K (proteinase K [2]): about 0.1 mM

Substance: MeOSuc-AlaAlaAlaProVal-CH2Cl (AAAPV; HELM PEPTIDE1{[COC(=O)CCC(=O)[*:2]].A.A.A.P.V.[ClC[*:1]]}$$$$V2.0; SMILES COC(=O)CCC(=O)N[C@@H](C)C(=O)N[C@@H](C)C(=O)N[C@@H](C)C(=O)N1CCC[C@H]1C(=O)N[C@H](C(=O)CCl)C(C)C) [MeOSuc-AAAPV-CH2Cl]
- concentration required to achieve the same level of inhibition as MeOSuc-AAPV-CH2Cl at 0.25 mM (proteinase K [1]; FIG. 5): 0.75 mM
- concentration providing effective inhibition of proteinase K (proteinase K [2]): 0.5 mM

Substance: methoxysuccinyl-AAAPL-chloromethyl ketone (HELM PEPTIDE1{[COC(=O)CCC(=O)[*:2]].A.A.A.P.L.[ClC[*:1]]}$$$$V2.0; SMILES COC(=O)CCC(=O)N[C@@H](C)C(=O)N[C@@H](C)C(=O)N[C@@H](C)C(=O)N1CCC[C@H]1C(=O)N[C@@H](CC(C)C)C(=O)CCl) [MeOSuc-AAAPL-CH2Cl]
- lowest concentration in the stopped mixture inhibitory for proteinase K activity (proteinase K [1]; Example 6, FIG. 5, tested 1 mM to 0.05 mM): about 0.05 mM
- concentration providing effective inhibition of proteinase K (proteinase K [2]): about 0.1 mM
- lowest concentration capable of inhibiting proteinase K (BSA present in gel lane) (proteinase K [3]; FIG. 7, tested 1 mM to 0.05 mM in stopped mixture): 0.1 mM and 0.10 mM

Substance: methoxysuccinyl-AAPF-chloromethyl ketone (HELM PEPTIDE1{[COC(=O)CCC(=O)[*:2]].A.A.P.F.[ClC[*:1]]}$$$$V2.0; SMILES COC(=O)CCC(=O)N[C@@H](C)C(=O)N[C@@H](C)C(=O)N1CCC[C@H]1C(=O)N[C@@H](Cc1ccccc1)C(=O)CCl) [MeOSuc-AAPF-CH2Cl]
- lowest concentration capable of inhibiting proteinase K (proteinase K [4]; 10 min incubation with proteinase K (100 μg/ml) before BSA): 0.125 mM
- concentration capable of inhibiting proteinase K when incubated for a longer period prior to BSA (proteinase K [4]; longer incubation with proteinase K before addition of BSA substrate): < 0.125 mM
- lowest concentration in the stopped mixture with inhibitory activity for proteinase K (proteinase K [1]; listed as MeOSuc-AlaAlaProPhe-CH2Cl): 0.05 mM
- average Ct (cycle threshold) (proteinase K [1]; FIG. 1, 0.05 mM inhibitor): about 30
- inhibiting concentration relative to MeOSuc-AAPV-CH2Cl (proteinase K [3]; FIG. 3, compare lanes at 0.5 mM and 0.25 mM): at least half that of MeOSuc-AAPV-CH2Cl

Substance: methoxysuccinyl-AAPL-chloromethyl ketone (HELM PEPTIDE1{[COC(=O)CCC(=O)[*:2]].A.A.P.L.[ClC[*:1]]}$$$$V2.0; SMILES COC(=O)CCC(=O)N[C@@H](C)C(=O)N[C@@H](C)C(=O)N1CCC[C@H]1C(=O)N[C@@H](CC(C)C)C(=O)CCl) [MeOSuc-AAPL-CH2Cl]
- concentration providing effective inhibition of proteinase K (proteinase K [2]): about 0.1 mM

Substance: methoxysuccinyl-APAF-chloromethyl ketone (HELM PEPTIDE1{[COC(=O)CCC(=O)[*:2]].A.P.A.F.[ClC[*:1]]}$$$$V2.0; SMILES COC(=O)CCC(=O)N[C@@H](C)C(=O)N1CCC[C@H]1C(=O)N[C@@H](C)C(=O)N[C@@H](Cc1ccccc1)C(=O)CCl) [MeOSuc-APAF-CH2Cl]
- proteinase K inhibitory activity (proteinase K [1]; FIG. 1): inactive at all concentrations tested
- Ct (cycle threshold) (proteinase K [1]; FIG. 1): 40

Substance: methoxysuccinyl-APAL-chloromethyl ketone (HELM PEPTIDE1{[COC(=O)CCC(=O)[*:2]].A.P.A.L.[ClC[*:1]]}$$$$V2.0; SMILES COC(=O)CCC(=O)N[C@@H](C)C(=O)N1CCC[C@H]1C(=O)N[C@@H](C)C(=O)N[C@@H](CC(C)C)C(=O)CCl) [MeOSuc-APAL-CH2Cl]
- lowest concentration in the stopped mixture with inhibitory activity for proteinase K (proteinase K [1]): about 0.5 mM

Substance: methoxysuccinyl-APAV-chloromethyl ketone (HELM PEPTIDE1{[COC(=O)CCC(=O)[*:2]].A.P.A.V.[ClC[*:1]]}$$$$V2.0; SMILES COC(=O)CCC(=O)N[C@@H](C)C(=O)N1CCC[C@H]1C(=O)N[C@@H](C)C(=O)N[C@H](C(=O)CCl)C(C)C) [MeOSuc-APAV-CH2Cl]
- proteinase K inhibitory activity (proteinase K [1]; FIG. 1): inactive at all concentrations tested
- Ct (cycle threshold) (proteinase K [1]; FIG. 1): 40
